From patent publication US20160362464A1 (University of California, published 2016)

Tests used:
[1] = target: T1, His-DAPLE-CT (aa 1650-2028) F1675A (human, UniProt Q9P219 1650-2028); assay: GST pulldown, purified proteins (FIG. 2C)
T1 construct: Recombinant, purified from E. coli; also called His-DAPLE-CT FA; DAPLE-CT FA; not shown: His tag and vector residues of pET28b
T1 sequence: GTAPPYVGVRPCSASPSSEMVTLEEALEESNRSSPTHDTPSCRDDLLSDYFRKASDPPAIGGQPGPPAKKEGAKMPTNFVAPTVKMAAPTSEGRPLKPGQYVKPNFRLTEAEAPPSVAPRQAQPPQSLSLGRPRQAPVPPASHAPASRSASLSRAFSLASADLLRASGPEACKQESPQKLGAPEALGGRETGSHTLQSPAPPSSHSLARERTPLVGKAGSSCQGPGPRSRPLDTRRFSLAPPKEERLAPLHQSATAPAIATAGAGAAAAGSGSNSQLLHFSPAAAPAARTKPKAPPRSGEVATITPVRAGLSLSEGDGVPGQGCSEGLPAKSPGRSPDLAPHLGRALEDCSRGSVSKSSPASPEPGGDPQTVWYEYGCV
Excerpt: (§1) FIGS. 2A-2N. DAPLE binds and activates Gαi3 in vitro and in vivo via its GBA motif. (A) Prediction of molecular contacts critical for the DAPLE-Gαi interaction. Homology-based model of DAPLE's GBA motif (Red) bound to Gαi3 (green=Switch II, blue=ras-like domain, yellow, all-helical domain) with an enlarged section depicting a putative hydrophobic contact between DAPLE's F1675 and Gαi3's W211/F215. (B) Mutation of residues in the SWII region of Gαi3 disrupts DAPLE binding. Binding of His-DAPLE-CT to GST-Gαi3 WT, W211A or F215A was analyzed exactly as described in FIG. 1D. (C) Mutation of DAPLE F1675 to A abrogates Gαi3 binding. Binding of His-DAPLE-CT WT or F1675A (FA) to GST-Gαi3 was analyzed exactly as described in FIG. 1D. […] Myc-DAPLE WT or F1675A (FA) was expressed in Cos7 and binding to GST-Gαi3 analyzed exactly as described in FIG. 1E. […] Immune complexes were analyzed for DAPLE (myc) and Gαi3 (FLAG) by immunoblotting (IB). was monitored as positive Gαi3-binding control. […] The steady-state GTPase activity of His-Gαi3 alone (black) or in the presence of 2 μM His-DAPLE-CT (blue) was determined by measuring the production of [³²P]Pi at different time points as described in “Methods”. […] GTPγ³⁵S binding to His-Gαi3 at 15 min was determined in the presence of increasing concentrations (0-2 μM) of His-DAPLE-CT WT (blue) or His-DAPLE-CT FA (red).

[2] = target: T2, myc-DAPLE full length F1675A (human, UniProt Q9P219 1-2028); assay: GST pulldown from Cos7 lysates (FIG. 2D)
T2 construct: Expressed in Cos7 cells; used as cell lysate; also called myc-DAPLE FA; DAPLE-FA; not shown: N-terminal myc tag of myc-pcDNA 3.1 (+)
Excerpt: as §1

- binding result [1]: no binding
- binding result [2]: no binding
B1: GST-Gαi3 preloaded with GDP (inactive) (other, rat, UniProt P08753 1-354, looked up)
chain: MGCTLSAEDKAAVERSKMIDRNLREDGEKAAKEVKLLLLGAGESGKSTIVKQMKIIHEDGYSEDECKQYKVVVYSNTIQSIIAIIRAMGRLKIDFGEAARADDARQLFVLAGSAEEGVMTSELAGVIKRLWRDGGVQACFSRSREYQLNDSASYYLNDLDRISQTNYIPTQQDVLRTRVKTTGIVETHFTFKELYFKMFDVGGQRSERKKWIHCFEGVTAIIFCVALSDYDLVLAEDEEMNRMHESMKLFDSICNNKWFTDTSIILFLNKKDLFEEKIKRSPLTICYPEYTGSNTYEEAAAYIQCQFEDLNRRKDTKEVYTHFTCATDTKNVQFVFDAVTDVIIKNNLKECGLY
notes: Immobilized on glutathione beads; Same polypeptide as m11, other nucleotide state; also called GST-Gαi3 WT; not shown: glutathione S-transferase tag of the pGEX-4T-1 vector
